Data from IntAct's records for PubMed 19800331.

B1: BAG family molecular chaperone regulator 1 (Homo sapiens), Q99933 (parent)
chain: MAQRGGARRPRGDRERLGSRLRALRPGREPRQSEPPAQRGPPPSGRPPARSTASGHDRPTRGAAAGARRPRMKKKTRRRSTRSEELTRSEELTLSEEATWSEEATQSEEATQGEEMNRSQEVTRDEESTRSEEVTREEMAAAGLTVTVTHSNEKHDLHVTSQQGSSEPVVQDLAQVVEEVIGVPQSFQKLIFKGKSLKEMETPLSALGIQDGCRVMLIGKKNSPQEEVELKKLKHLEKSVEKIADQLEELNKELTGIQQGFLPKDLQAEALCKLDRRVKATIEQFMKILEEIDTLILPENFKDSRLKRKGLVKKVQAFLAECDTVEQNICQETERLQSTNFALAE

Variants of: B1
Details: with hsp7c_human HSPA8, P11142
hsp7c_human HSPA8, P11142, sequence (P11142 whole entry, looked up): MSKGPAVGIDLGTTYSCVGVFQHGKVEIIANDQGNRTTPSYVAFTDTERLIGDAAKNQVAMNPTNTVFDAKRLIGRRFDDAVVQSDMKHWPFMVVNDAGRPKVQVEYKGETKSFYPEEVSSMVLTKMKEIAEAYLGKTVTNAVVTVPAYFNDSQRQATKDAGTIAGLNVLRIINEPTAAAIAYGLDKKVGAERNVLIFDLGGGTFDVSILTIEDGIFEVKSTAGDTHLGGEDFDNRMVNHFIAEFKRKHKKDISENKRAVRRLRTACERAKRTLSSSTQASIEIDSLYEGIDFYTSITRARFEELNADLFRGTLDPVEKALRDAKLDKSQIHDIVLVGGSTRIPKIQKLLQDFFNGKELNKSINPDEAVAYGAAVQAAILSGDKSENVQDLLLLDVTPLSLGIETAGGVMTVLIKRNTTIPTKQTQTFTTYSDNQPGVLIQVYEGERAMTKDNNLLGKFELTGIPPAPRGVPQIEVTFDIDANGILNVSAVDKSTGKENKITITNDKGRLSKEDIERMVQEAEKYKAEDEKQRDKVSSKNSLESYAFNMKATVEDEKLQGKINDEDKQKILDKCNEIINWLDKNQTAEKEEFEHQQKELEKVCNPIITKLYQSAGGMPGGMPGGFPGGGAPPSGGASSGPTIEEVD

effect of a mutation on the interaction	Variant
decreasing interaction	R308A

Variants of: B1
Details: with hsp7c_human HSPA8, P11142
Remark: another data set of the same source

effect of a mutation on the interaction	Variant
decreasing interaction	K309A
